Results reported in the supplement of paper PMC5998384.

Assays:
HeLa Kyoto [1] = assay: melting temperature (median over replicates), in situ; higher = more thermally stable
HeLa Kyoto [2] = assay: solubility in G1/S (NP-40 vs SDS abundance) (log2 ratio); higher = more soluble; settings: cell cycle stage: G1/S
HeLa Kyoto [3] = assay: thermal stability score vs G1/S (z-score of summed log2 fold changes over temperatures); higher = more thermally stable than in G1/S
HeLa Kyoto [4] = assay: solubility change mitosis vs G1/S (difference of NP-40 vs SDS log2 ratios) (log2 ratio difference); higher = more soluble in mitosis
[5] = cell cycle stage: early G1 (4.5 h after nocodazole release)
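Wherever melting temperature (median over replicates), in situ is given: HeLa Kyoto cells synchronized by double thymidine or nocodazole block, proteins quantified by TMT10plex mass spectrometry, three independent biological replicates.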
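Wherever solubility change mitosis vs G1/S (difference of NP-40 vs SDS log2 ratios) is given: synchronized HeLa Kyoto cells (double thymidine block for G1/S, nocodazole release for mitosis), protein amounts in NP-40 versus SDS lysates quantified by mass spectrometry, three biological replicates.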
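Wherever solubility in G1/S (NP-40 vs SDS abundance) is given: HeLa Kyoto cells arrested at G1/S by double thymidine block, proteins quantified by TMT10plex mass spectrometry in mild NP-40 versus SDS extracts, three biological replicates.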
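Wherever thermal stability score vs G1/S (z-score of summed log2 fold changes over temperatures) is given: synchronized HeLa Kyoto cells, proteins quantified by TMT10plex mass spectrometry, three biological replicates, mitosis taken 0.5 h after nocodazole release, G1/S directly after double thymidine block.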

Sequence | melting temperature (HeLa Kyoto [1]; cell cycle stage: G1/S) | melting temperature (HeLa Kyoto [1]; cell cycle stage: mitosis) | solubility in G1/S (log2) (HeLa Kyoto [2]) | thermal stability score (HeLa Kyoto [3]; [5]) | thermal stability score (HeLa Kyoto [3]; cell cycle stage: mitosis) | solubility change mitosis (log2) (HeLa Kyoto [4])
MAAEVYFGDLELFEPFDHPEESIPKPVHTRFKDDDGDEEDENGVGDAELRERLRQCEETIEQLRAENQELKRKLNILTRPSGILVNDTKLDGPILQILFMNNAISKQYHQEIEEFVSNLVKRFEEQQKNDVEKTSFNLLPQPSSIVLEEDHKVEESCAIKNNKEAFSVVGSVLYFTNFCLDKLGQPLLNENPQLSEGWEIPKYHQVFSHIVSLEGQEIQVKAKRPKPHCFNCGSEEHQMKDCPMPRNAARISEKRKEYMDACGEANNQNFQQRYHAEEVEERFGRFKPGVISEELQDALGVTDKSLPPFIYRMRQLGYPPGWLKEAELENSGLALYDGKDGTDGETEVGEIQQNKSVTYDLSKLVNYPGFNISTPRGIPDEWRIFGSIPMQACQQKDVFANYLTSNFQAPGVKSGNKRSSSHSSPGSPKKQKNESNSAGSPADMELDSDMEVPHGSQSSESFQFQPPLPPDTPPLPRGTPPPVFTPPLPKGTPPLTPSDSPQTRTASGAVDEDALTLEELEEQQRRIWAALEQAESVNSDSDVPVDTPLTGNSVASSPCPNELDLPVPEGKTSEKQTLDEPEVPEIFTKKSEAGHASSPDSEVTSLCQKEKAELAPVNTEGALLDNGSVVPNCDISNGGSQKLFPADTSPSTATKIHSPIPDMSKFATGITPFEFENMAESTGMYLRIRSLLKNSPRNQQKNKKASE [ZCCHC8] | 51 °C | 52.4 °C | 0.0806 | 0.273 | 0.547 | -0.117
MAAFAVEPQGPALGSEPMMLGSPTSPKPGVNAQFLPGFLMGDLPAPVTPQPRSISGPSVGVMEMRSPLLAGGSPPQPVVPAHKDKSGAPPVRSIYDDISSPGLGSTPLTSRRQPNISVMQSPLVGVTSTPGTGQSMFSPASIGQPRKTTLSPAQLDPFYTQGDSLTSEDHLDDSWVTVFGFPQASASYILLQFAQYGNILKHVMSNTGNWMHIRYQSKLQARKALSKDGRIFGESIMIGVKPCIDKSVMESSDRCALSSPSLAFTPPIKTLGTPTQPGSTPRISTMRPLATAYKASTSDYQVISDRQTPKKDESLVSKAMEYMFGW [NUP35] | 52.3 °C | 52 °C | 0.209 | -2.22 | -0.679 | -0.0493
MAAFLKMSVSVNFFRPFTRFLVPFTLHRKRNNLTILQRYMSSKIPAVTYPKNESTPPSEELELDKWKTTMKSSVQEECVSTISSSKDEDPLAATREFIEMWRLLGREVPEHITEEELKTLMECVSNTAKKKYLKYLYTKEKVKKARQIKKEMKAAAREEAKNIKLLETTEEDKQKNFLFLRLWDRNMDIAMGWKGAQAMQFGQPLVFDMAYENYMKRKELQNTVSQLLESEGWNRRNVDPFHIYFCNLKIDGALHRELVKRYQEKWDKLLLTSTEKSHVDLFPKDSIIYLTADSPNVMTTFRHDKVYVIGSFVDKSMQPGTSLAKAKRLNLATECLPLDKYLQWEIGNKNLTLDQMIRILLCLKNNGNWQEALQFVPKRKHTGFLEISQHSQEFINRLKKAKT [TRMT10C] | 51.3 °C | 51.9 °C | -0.0196 | 0.276 | 0.67 | -0.114
MAAGAGTAGPASGPGVVRDPAASQPRKRPGREGGEGARRSDTMAGGGGSSDGSGRAAGRRASRSSGRARRGRHEPGLGGPAERGAGEARLEEAVNRWVLKFYFHEALRAFRGSRYGDFRQIRDIMQALLVRPLGKEHTVSRLLRVMQCLSRIEEGENLDCSFDMEAELTPLESAINVLEMIKTEFTLTEAVVESSRKLVKEAAVIICIKNKEFEKASKILKKHMSKDPTTQKLRNDLLNIIREKNLAHPVIQNFSYETFQQKMLRFLESHLDDAEPYLLTMAKKALKSESAASSTGKEDKQPAPGPVEKPPREPARQLRNPPTTIGMMTLKAAFKTLSGAQDSEAAFAKLDQKDLVLPTQALPASPALKNKRPRKDENESSAPADGEGGSELQPKNKRMTISRLVLEEDSQSTEPSAGLNSSQEAASAPPSKPTVLNQPLPGEKNPKVPKGKWNSSNGVEEKETWVEEDELFQVQAAPDEDSTTNITKKQKWTVEESEWVKAGVQKYGEGNWAAISKNYPFVNRTAVMIKDRWRTMKRLGMN [TERF2] | 48.9 °C | 50.3 °C | 0.0628 | 1.08 | 1.27 | 0.0937
MAAGGSTQQRRREMAAASAAAISGAGRCRLSKIGATRRPPPARVRVAVRLRPFVDGTAGASDPPCVRGMDSCSLEIANWRNHQETLKYQFDAFYGERSTQQDIYAGSVQPILRHLLEGQNASVLAYGPTGAGKTHTMLGSPEQPGVIPRALMDLLQLTREEGAEGRPWALSVTMSYLEIYQEKVLDLLDPASGDLVIREDCRGNILIPGLSQKPISSFADFERHFLPASRNRTVGATRLNQRSSRSHAVLLVKVDQRERLAPFRQREGKLYLIDLAGSEDNRRTGNKGLRLKESGAINTSLFVLGKVVDALNQGLPRVPYRDSKLTRLLQDSLGGSAHSILIANIAPERRFYLDTVSALNFAARSKEVINRPFTNESLQPHALGPVKLSQKELLGPPEAKRARGPEEEEIGSPEPMAAPASASQKLSPLQKLSSMDPAMLERLLSLDRLLASQGSQGAPLLSTPKRERMVLMKTVEEKDLEIERLKTKQKELEAKMLAQKAEEKENHCPTMLRPLSHRTVTGAKPLKKAVVMPLQLIQEQAASPNAEIHILKNKGRKRKLESLDALEPEEKAEDCWELQISPELLAHGRQKILDLLNEGSARDLRSLQRIGPKKAQLIVGWRELHGPFSQVEDLERVEGITGKQMESFLKANILGLAAGQRCGAS [KIF22] | 50 °C | 48.2 °C | -0.459 | 1.72 | 2.31 | 0.342
MAAGKSGGSAGEITFLEALARSESKRDGGFKNNWSFDHEEESEGDTDKDGTNLLSVDEDEDSETSKGKKLNRRSEIVANSSGEFILKTYVRRNKSESFKTLKGNPIGLNMLSNNKKLSENTQNTSLCSGTVVHGRRFHHAHAQIPVVKTAAQSSLDRKERKEYPPHVQKVEINPVRLSRLQGVERIMKKTEESESQVEPEIKRKVQQKRHCSTYQPTPPLSPASKKCLTHLEDLQRNCRQAITLNESTGPLLRTSIHQNSGGQKSQNTGLTTKKFYGNNVEKVPIDIIVNCDDSKHTYLQTNGKVILPGAKIPKITNLKERKTSLSDLNDPIILSSDDDDDNDRTNRRESISPQPADSACSSPAPSTGKVEAALNENTCRAERELRSIPEDSELNTVTLPRKARMKDQFGNSIINTPLKRRKVFSQEPPDALALSCQSSFDSVILNCRSIRVGTLFRLLIEPVIFCLDFIKIQLDEPDHDPVEIILNTSDLTKCEWCNVRKLPVVFLQAIPAVYQKLSIQLQMNKEDKVWNDCKGVNKLTNLEEQYIILIFQNGLDPPANMVFESIINEIGIKNNISNFFAKIPFEEANGRLVACTRTYEESIKGSCGQKENKIKTVSFESKIQLRSKQEFQFFDEEEETGENHTIFIGPVEKLIVYPPPPAKGGISVTNEDLHCLNEGEFLNDVIIDFYLKYLVLEKLKKEDADRIHIFSSFFYKRLNQRERRNHETTNLSIQQKRHGRVKTWTRHVDIFEKDFIFVPLNEAAHWFLAVVCFPGLEKPKYEPNPHYHENAVIQKCSTVEDSCISSSASEMESCSQNSSAKPVIKKMLNKKHCIAVIDSNPGQEESDPRYKRNICSVKYSVKKINHTASENEEFNKGESTSQKVADRTKSENGLQNESLSSTHHTDGLSKIRLNYSDESPEAGKMLEDELVDFSEDQDNQDDSSDDGFLADDNCSSEIGQWHLKPTICKQPCILLMDSLRGPSRSNVVKILREYLEVEWEVKKGSKRSFSKDVMKGSNPKVPQQNNFSDCGVYVLQYVESFFENPILSFELPMNLANWFPPPRMRTKREEIRNIILKLQEDQSKEKRKHKDTYSTEAPLGEGTEQYVNSISD [SENP6] | 51.8 °C | 52.5 °C | -0.261 | -0.65 | 0.269 | 0.144
